Experimental findings from article PMC4245933 are described below.

Data set [1] has as its target T1, His-KDM4D1-350 (human, UniProt Q6B0I6 1-350).
T1 sequence: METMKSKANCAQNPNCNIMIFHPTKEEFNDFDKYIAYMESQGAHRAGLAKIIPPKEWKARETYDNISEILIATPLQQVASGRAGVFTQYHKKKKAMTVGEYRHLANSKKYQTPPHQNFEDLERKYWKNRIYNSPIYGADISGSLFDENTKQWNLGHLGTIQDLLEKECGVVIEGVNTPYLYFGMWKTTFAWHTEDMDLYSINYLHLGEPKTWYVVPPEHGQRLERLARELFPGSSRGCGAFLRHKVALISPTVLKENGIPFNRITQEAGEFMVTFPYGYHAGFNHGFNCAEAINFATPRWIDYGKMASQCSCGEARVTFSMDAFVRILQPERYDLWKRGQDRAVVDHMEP
In words: EMSA. On the technique in general: Mobility shift assays separate free from complexed probe on a gel.

Data set [2] concerns the target T2, His-KDM4D-FL-1H4R-HRK (human, UniProt Q6B0I6 1-523, H115A;R123A;K127A;H219A;R222A;R225A;R228A;R236A).
T2 sequence: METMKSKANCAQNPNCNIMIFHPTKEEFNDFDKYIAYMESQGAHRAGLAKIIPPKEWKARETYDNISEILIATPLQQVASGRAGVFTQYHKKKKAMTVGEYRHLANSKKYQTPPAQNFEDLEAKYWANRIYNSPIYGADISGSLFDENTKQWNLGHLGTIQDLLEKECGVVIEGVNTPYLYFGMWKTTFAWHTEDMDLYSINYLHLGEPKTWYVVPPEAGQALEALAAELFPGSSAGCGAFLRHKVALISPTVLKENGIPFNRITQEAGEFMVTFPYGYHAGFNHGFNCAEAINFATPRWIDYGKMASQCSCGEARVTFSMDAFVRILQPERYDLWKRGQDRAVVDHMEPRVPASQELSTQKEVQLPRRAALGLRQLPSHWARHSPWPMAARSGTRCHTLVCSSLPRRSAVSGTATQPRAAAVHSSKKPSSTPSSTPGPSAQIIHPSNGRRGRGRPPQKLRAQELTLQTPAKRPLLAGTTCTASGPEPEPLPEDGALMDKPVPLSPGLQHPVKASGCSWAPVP
In words: EMSA.

The target in data set [3] is T3, GST-KDM4D348-523 (human, UniProt Q6B0I6 348-523).
T3 sequence: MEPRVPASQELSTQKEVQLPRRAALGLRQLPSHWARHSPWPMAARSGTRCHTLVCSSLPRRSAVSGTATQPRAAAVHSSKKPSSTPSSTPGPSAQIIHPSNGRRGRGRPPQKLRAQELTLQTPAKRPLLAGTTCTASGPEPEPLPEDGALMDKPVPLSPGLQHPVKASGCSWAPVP
The data set is described as follows: EMSA.

The target of data set [4] is T4, His-KDM4D-FL (human, UniProt Q6B0I6 1-523).
T4 sequence: T2 sequence with A115H, A123R, A127K, A219H, A222R, A225R, A228R, A236R
In words: EMSA.

Data set [5] deals with T5, His-KDM4D-N202M (human, UniProt Q6B0I6 1-523, N202M).
T5 sequence: T2 sequence with A115H, A123R, A127K, N202M, A219H, A222R, A225R, A228R, A236R
In words: EMSA.

The target in data set [6] is T1, His-KDM4D1-350. In words: fluorescence anisotropy. (Fluorescence polarisation rises when a labelled molecule tumbles more slowly, as on binding a larger partner.)
The target in data set [7] is T4, His-KDM4D-FL. The data set is described as follows: fluorescence anisotropy.
Data set [8] has as its target T6, His-KDM4D1-350-1H4R-HRK (human, UniProt Q6B0I6 1-350, H115A;R123A;K127A;H219A;R222A;R225A;R228A;R236A).
T6 sequence: T1 sequence with H115A, R123A, K127A, H219A, R222A, R225A, R228A, R236A
In words: fluorescence anisotropy.

Where a chain is given by its changes, count along the chain named.

B1: 100nt RNA (ssRNA)
RNA: GGGCGAAUUGGGCCCGACGUCGCAUGCUCCCGGCCGCCAUGGCGGCCGCGGGAAUUCGAUUAGUUCCCCUAAUAAUCGGUGCCCCCGAUAUGGCGUUUA
What is called Kd is the constant that tells how readily two partners part at equilibrium. For B1, the Kd in data set [1] was approximately 80 nM; in data set [2] it was more than 100 nM; in data set [3] it was more than 100 nM; in data set [4], approximately 20 nM; in data set [5], approximately 15 nM.
Regarding GGGCGAAUUGGGCCCGACGUCGCAUGCUCCCGGCCGC (ssRNA) [37nt RNA], the Kd in data set [4] was less than 50 nM.
Regarding UUAACACAAAAUACGCACCCCA (ssRNA) [22nt RNA (RNAF-22)], the Kd was approximately 1220 nM in data set [6] and approximately 126 nM in data set [7]. The binding result in data set [8] is “no binding”.
